Experimental data reported in PMC3787073 (PLoS ONE, 2013).
Read-outs that look alike come from different tables or passages of the source.

B1: Recombinant Sc-KU-4 (BPTI-Kunitz family serine protease inhibitor of Steinernema carpocapsae) (natural protein)
chain: FPLFEFNCSALKDSGSGSNVTRQFYFDPDWNTCLAFNYNGTGGNTNRFETKEDCELLCVPAGSTCKGPSKTVVQPLKEAFRCDDSVCPSTHKCLMGMVPVCCDKENQEAFNQAVADTCPDGTKADGIFDLYFRAVYAHSCEDLICDENHKCVQVNKHFAKCCSKE
notes: not shown: His6, C-terminal, kept

Experiments:
Test in all cases: enzyme inhibition kinetics (Dixon plot)
[1] = target: α-chymotrypsin from bovine pancreas (bovine)
[2] = target: α-chymotrypsin from bovine pancreas (bovine); remark: listed apart in the source
[3] = target: elastase from bovine pancreas (bovine, UniProt Q28153 27-266); conditions: both partners purified
Chain of elastase from bovine pancreas (Q28153 27-266): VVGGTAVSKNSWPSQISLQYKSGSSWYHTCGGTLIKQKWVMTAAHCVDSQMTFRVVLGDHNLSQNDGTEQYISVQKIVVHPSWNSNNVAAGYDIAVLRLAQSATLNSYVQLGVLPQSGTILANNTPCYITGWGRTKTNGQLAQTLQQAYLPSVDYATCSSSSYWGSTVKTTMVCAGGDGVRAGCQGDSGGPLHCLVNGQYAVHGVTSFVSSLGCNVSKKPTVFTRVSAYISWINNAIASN

| Molecule | Ki [1] [nM] | Ki [2] [nM] | Ki [3] [nM] |
| --- | --- | --- | --- |
| Recombinant Sc-KU-4 (BPTI-Kunitz family serine protease inhibitor of Steinernema carpocapsae) (from UniProt E2IPQ6) (natural protein) | 1.8 | 2.6 | – |
| B1 | – | – | 2.6 |
